Results as given in paper PMC5841803, “Retinal guanylyl cyclase activating protein 1 forms a functional dimer” (PLoS ONE, 2018).
Positions count from the first letter of the chain named. Names and notes keep the numbering of the source. Like-named read-outs stand apart in the source and are kept apart here. Each block holds one binder with its values, some of them ahead of it.

Assays:
[1] = target: T1, human retinal guanylyl cyclase RetGC1 (human, UniProt Q02846 52-1103)
T1 sequence (looked up): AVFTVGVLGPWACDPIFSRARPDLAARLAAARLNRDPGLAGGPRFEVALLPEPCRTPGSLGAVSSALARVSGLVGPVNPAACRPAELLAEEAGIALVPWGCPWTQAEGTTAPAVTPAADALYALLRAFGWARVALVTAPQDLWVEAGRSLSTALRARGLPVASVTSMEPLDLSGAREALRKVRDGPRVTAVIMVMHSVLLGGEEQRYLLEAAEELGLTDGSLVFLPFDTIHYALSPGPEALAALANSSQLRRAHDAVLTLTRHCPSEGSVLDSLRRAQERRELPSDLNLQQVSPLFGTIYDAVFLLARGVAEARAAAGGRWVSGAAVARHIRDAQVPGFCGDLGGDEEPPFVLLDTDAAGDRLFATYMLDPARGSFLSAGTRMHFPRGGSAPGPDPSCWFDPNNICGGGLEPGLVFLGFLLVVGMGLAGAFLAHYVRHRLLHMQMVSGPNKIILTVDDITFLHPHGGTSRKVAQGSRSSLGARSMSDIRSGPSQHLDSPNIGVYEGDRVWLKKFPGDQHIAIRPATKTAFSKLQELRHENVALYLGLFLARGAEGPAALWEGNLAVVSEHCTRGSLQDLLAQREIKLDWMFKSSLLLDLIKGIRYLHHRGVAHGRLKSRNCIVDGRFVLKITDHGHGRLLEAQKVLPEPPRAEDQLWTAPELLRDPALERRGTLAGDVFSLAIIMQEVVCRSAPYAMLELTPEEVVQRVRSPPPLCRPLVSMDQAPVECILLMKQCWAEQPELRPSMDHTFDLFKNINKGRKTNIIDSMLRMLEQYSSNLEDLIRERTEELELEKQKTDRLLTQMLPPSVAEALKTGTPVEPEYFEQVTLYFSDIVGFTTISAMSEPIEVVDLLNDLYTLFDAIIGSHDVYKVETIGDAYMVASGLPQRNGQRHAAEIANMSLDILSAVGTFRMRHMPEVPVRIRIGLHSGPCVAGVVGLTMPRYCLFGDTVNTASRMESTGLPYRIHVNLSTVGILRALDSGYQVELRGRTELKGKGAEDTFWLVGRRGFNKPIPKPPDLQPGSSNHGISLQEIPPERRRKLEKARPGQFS

[2] = target: the molecule itself; assay: NMR pulsed-field gradient diffusion; translational diffusion coefficient of spin-labelled GCAP1^CL(T29C); molar mass from D
[3] = target: T1, human retinal guanylyl cyclase RetGC1; assay: cell-based or functional assay
[4] = target: the molecule itself; assay: SEC; analytical SEC, Superdex 200 HR 10/30, 100 uL of 200 uM protein, 10 mM Tris pH 7.4, 100 mM NaCl, 1 mM DTT, 4 C, with saturating Mg2+ (2 mM) or Ca2+ (2 mM); molar mass from elution time against protein standards
[5] = target: the molecule itself; assay: EPR-DEER; spin-labelled (MTSSL) single-Cys GCAP1 at ~300 uM, 10 mM Tris-d11 pH 7.4, 2 mM MgCl2, D2O, 25% glycerol-d8, frozen, 50 or 80 K; Ca2+-free/Mg2+-bound state, similar data in the Ca2+-bound state; intermolecular spin-label distances

EC50 of activation of RetGC1 (HEK293 membranes) in the absence of Ca2+ (EGTA), guanylyl cyclase assay [1]: 14 µM
B1: Cys-less mutant of GCAP1 (GCAP1^CL) (natural protein)
chain: MGNIMSGKSVEELSSTETHQWYKKFMTETPSGQLTLYEFRQFFGLKNLSPWASQYVEQMFETFDFNKDGYIDFMEYVAALSLVLKGKVEQKLRWYFKLYDVDGNGTIDRDELLTIIRAIRAINPTSDSTMTAEEFTDTVFSKIDVNGDGELSLEEFMEGVQKDQMLLDTLTRSLDLTRIVRRLQNGEQDEEGASGRETEAAEADG
modifications: N-terminal myristoylation

B2: GCAP1^CL(T29C), spin-labelled (natural protein, bovine, UniProt P46065 1-205, looked up)
chain: B1 chain with T29C
modifications: N-terminal myristoylation; MTSSL spin-label on Cys29 (N-O group reduced for the HSQC spectrum)
notes: GCAP1, bovine, D6S background, Cys-less parent (C18, C29, C106, C125 to Thr) in which T29C restores the natural Cys29; also called spin-labeled GCAP1^CL(T29C); source: E. coli BL21(DE3), co-expressed with yeast N-myristoyl CoA transferase, purified, labelled with MTSSL
stoichiometry N [2]: 4

EC50 of activation of RetGC1 (HEK293 membranes) in the absence of Ca2+ (EGTA), guanylyl cyclase assay [3]: < 2 µM
B3: wild type GCAP1 (recombinant bovine myristoylated guanylyl cyclase activating protein 1, D6S) (natural protein, UniProt P46065 1-205, looked up)
chain: B1 chain with T18C, T29C, T106C, T125C
modifications: N-terminal myristoylation
notes: 15N-labelled for NMR; also called GCAP1 D6S mutant; source: E. coli BL21(DE3), co-expressed with yeast N-myristoyl CoA transferase, purified
stoichiometry N [4]: 2

B4: GCAP1^CL(E57C), nitroxide spin-labelled (natural protein, bovine, UniProt P46065 1-205, looked up)
chain: B1 chain with E57C
modifications: N-terminal myristoylation; MTSSL nitroxide spin-label on Cys57
notes: GCAP1, bovine, D6S background, Cys-less (all four native Cys C18, C29, C106, C125 to Thr), with a single Cys at 57; source: E. coli BL21(DE3), co-expressed with yeast N-myristoyl CoA transferase, purified, labelled with MTSSL
binding result [5]: binds

B5: GCAP1^CL(E154C), nitroxide spin-labelled (natural protein, bovine, UniProt P46065 1-205, looked up)
chain: B1 chain with E154C
modifications: N-terminal myristoylation; MTSSL nitroxide spin-label on Cys154
notes: GCAP1, bovine, D6S background, Cys-less (all four native Cys C18, C29, C106, C125 to Thr), with a single Cys at 154; source: E. coli BL21(DE3), co-expressed with yeast N-myristoyl CoA transferase, purified, labelled with MTSSL
binding result [5]: binds

B6: GCAP1^CL(E133C), nitroxide spin-labelled (natural protein, bovine, UniProt P46065 1-205, looked up)
chain: B1 chain with E133C
modifications: N-terminal myristoylation; MTSSL nitroxide spin-label on Cys133
notes: GCAP1, bovine, D6S background, Cys-less (all four native Cys C18, C29, C106, C125 to Thr), with a single Cys at 133; source: E. coli BL21(DE3), co-expressed with yeast N-myristoyl CoA transferase, purified, labelled with MTSSL
binding result [5]: binds
